These results are taken from article PMC6819594, “Screening antiproliferative drug for breast cancer from bisbenzylisoquinoline alkaloid tetrandrine and fangchinoline derivatives by targeting BLM helicase” (BMC Cancer, 2019).

This series addresses BLM642-1290 helicase (UniProt P54132 642-1290). As to the kind of experiment: fluorescence anisotropy; mitomycin C (no significant effect); 20 mM Tris pH 7.9, 25 mM NaCl, 3 mM MgCl2, 0.1 mM DTT; EMSA at room temperature 45 min; FP temperature not stated. The note with it: protein: recombinant; label: 3' fluorescein (FAM) on strand 2; 3' overhang 24 nt on strand 1; 21 bp duplex. (Polarisation of emitted light reports the rotation of a fluorescent probe.)

BLM642-1290 helicase, sequence (P54132 642-1290): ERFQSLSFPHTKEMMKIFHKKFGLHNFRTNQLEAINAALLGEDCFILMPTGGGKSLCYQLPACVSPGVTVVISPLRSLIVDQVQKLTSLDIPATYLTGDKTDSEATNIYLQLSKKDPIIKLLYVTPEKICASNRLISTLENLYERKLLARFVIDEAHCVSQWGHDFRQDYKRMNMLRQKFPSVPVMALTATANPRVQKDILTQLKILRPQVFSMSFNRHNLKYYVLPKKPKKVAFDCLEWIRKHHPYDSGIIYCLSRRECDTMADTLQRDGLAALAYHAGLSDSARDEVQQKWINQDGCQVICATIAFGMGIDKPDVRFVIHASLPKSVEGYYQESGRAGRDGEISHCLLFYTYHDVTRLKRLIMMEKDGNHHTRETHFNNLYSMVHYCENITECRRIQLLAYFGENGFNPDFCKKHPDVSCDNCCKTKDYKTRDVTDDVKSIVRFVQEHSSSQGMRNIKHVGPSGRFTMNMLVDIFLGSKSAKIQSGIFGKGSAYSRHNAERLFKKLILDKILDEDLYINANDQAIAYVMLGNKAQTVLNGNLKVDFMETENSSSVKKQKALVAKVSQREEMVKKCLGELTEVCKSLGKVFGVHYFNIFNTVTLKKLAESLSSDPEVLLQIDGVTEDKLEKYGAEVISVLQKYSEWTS

B1: dsDNA A1A2 (dsDNA)
DNA 1: AATCCGTCGAGCAGAGTTAGGTTAGGTTAGGTTAGTTTTTTTTTT
DNA 2: CCTAACTCTGCTCGACGGATT
As for B1, the binding result is “binds”.
